Target: T1, MtbTOP1-704t (Mycobacterium tuberculosis, UniProt P9WG49 2-704)
T1 sequence: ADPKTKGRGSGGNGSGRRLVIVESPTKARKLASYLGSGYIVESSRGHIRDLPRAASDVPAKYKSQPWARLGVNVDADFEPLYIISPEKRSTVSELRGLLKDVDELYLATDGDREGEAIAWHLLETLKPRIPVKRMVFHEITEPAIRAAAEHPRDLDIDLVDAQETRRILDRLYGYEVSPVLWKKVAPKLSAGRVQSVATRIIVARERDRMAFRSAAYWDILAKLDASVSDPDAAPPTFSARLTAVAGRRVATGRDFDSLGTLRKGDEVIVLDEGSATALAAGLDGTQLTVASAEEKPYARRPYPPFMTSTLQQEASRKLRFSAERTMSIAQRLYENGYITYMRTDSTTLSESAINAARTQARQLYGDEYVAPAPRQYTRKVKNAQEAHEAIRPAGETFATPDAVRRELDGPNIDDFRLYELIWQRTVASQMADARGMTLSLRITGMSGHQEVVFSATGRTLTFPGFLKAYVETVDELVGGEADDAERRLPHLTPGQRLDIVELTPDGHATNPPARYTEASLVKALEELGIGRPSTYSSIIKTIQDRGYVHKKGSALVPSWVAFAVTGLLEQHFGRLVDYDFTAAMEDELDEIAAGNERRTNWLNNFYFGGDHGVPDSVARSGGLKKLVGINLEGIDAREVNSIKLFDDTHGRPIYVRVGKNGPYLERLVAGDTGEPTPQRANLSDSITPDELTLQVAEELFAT
Experiment: X-ray crystallography; no metal at active site; 2.42 A
Conditions: protein: recombinant; tags: His6-Mocr removed by TEV; N-terminal SNA remains; single strand

## TTCCGCTTGAC (ssDNA) [MTS2-11]
  binding result: binds

— PMC6101483, “Investigating mycobacterial topoisomerase I mechanism from the analysis of metal and DNA substrate interactions at the active site”
